Some targets named below: Q8TB45; Q9ULJ8; Q96FS4; Q6ZWJ1; Q5TCQ9; Q70Z35; O00233; Q8IUC4; Q96JB8; O60759; O75970; LIMK1, P53667; Q8TEW0; Q9P227; Q9C0E4; Q96HC4; O15021; Q8TDM6; Q9NR12; Q9H190; Q96SB3; Q13368; O00560; O43166; Q92614; PTPN13_2, Q12923.
Holding throughout (assay): holdup assay
Set-up in all cases: key: below the threshold = too weak to quantify, mostly under pKd 3.1 to 4
What all share (conditions): plain residues with an end cap or a label only (N-terminal biotin on a linker: ttds)

The next assay deals with T1, LNX2_1, Q8N448.
T1 sequence (Q8N448 228-328, limits assumed, looked up): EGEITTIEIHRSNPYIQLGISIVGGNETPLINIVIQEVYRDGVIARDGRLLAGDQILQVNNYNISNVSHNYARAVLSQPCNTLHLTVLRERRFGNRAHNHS

Chain of LIMK1, P53667 (P53667 155-268): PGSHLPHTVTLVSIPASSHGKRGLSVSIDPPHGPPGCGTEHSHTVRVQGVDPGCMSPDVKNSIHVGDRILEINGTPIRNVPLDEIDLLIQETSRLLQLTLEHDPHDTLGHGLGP
Chain of PTPN13_2, Q12923 (Q12923 1363-1462): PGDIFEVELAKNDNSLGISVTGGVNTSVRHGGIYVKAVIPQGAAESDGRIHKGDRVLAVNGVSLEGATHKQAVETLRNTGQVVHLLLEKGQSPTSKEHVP

B1: SLC15A5, A6NIM6 (peptide)
chain: SSIDLWETAL
B1: the pKd result with Q8TB45, with Q9ULJ8, with Q96FS4, with Q6ZWJ1, with Q5TCQ9 and with Q70Z35 was “below the threshold” each time. The negative logarithm of the Kd (pKd) entry in the assay with O00233 is “below the threshold”; in the assay with Q8IUC4, “below the threshold”; with Q96JB8, “below the threshold”; with O60759, “below the threshold”; with O75970 it was “below the threshold”; in the assay with LIMK1, P53667, “below the threshold”. In addition, the pKd entry with Q8TEW0, with Q9P227, in the assay with Q9C0E4, in the assay with Q96HC4, in the assay with O15021 and with Q8TDM6 was “below the threshold” throughout. Besides, the pKd result with Q9NR12, with Q9H190, in the assay with Q96SB3, with Q13368, in the assay with O00560 and with O43166 was “below the threshold” throughout. The negative-log Kd (pKd) entry in the assay with Q92614 is on record as “below the threshold”.

B2: HPV33-E6, P06427 (peptide)
chain: SRSRRRETAL
For B2, the pKd result with LIMK1, P53667 is reported as “below the threshold”.

B3: RALBP1, Q15311 (peptide)
chain: PSRDRKETSI
As to B3, the pKd entry in the assay with Q8TB45, with Q9ULJ8, in the assay with Q96FS4, with Q6ZWJ1, with Q5TCQ9 and with Q70Z35 was “below the threshold” throughout. The pKd entry with O00233 was “below the threshold”; with Q8IUC4, “below the threshold”; in the assay with Q96JB8, “below the threshold”; in the assay with O60759 it was “below the threshold”; with O75970, “below the threshold”; in the assay with LIMK1, P53667 it was 4.16. Further, the pKd result in the assay with Q8TEW0 was “below the threshold”; with Q9P227, “below the threshold”; with Q9C0E4, “below the threshold”; with Q96HC4, “below the threshold”; with O15021, “below the threshold”; in the assay with PTPN13_2, Q12923, 3.79. For the same molecule, the pKd result in the assay with Q8TDM6, with Q9NR12, in the assay with Q9H190, in the assay with Q13368, with O00560 and with O43166 was “below the threshold” each time. In the assay with Q92614, the pKd result is reported as “below the threshold”.

B4: FZD7, O75084 (peptide)
chain: SHSSKGETAV
As for B4, the pKd result with Q8TB45, in the assay with Q9ULJ8, in the assay with Q96FS4, in the assay with Q6ZWJ1, in the assay with Q5TCQ9 and in the assay with Q70Z35 was “below the threshold” in each case. Also, the pKd result is given as “below the threshold” with O00233; “below the threshold” with Q8IUC4; “below the threshold” with Q96JB8; “below the threshold” with O60759; “below the threshold” in the assay with O75970; “below the threshold” with LIMK1, P53667. The negative-log Kd (pKd) result was “below the threshold” with Q8TEW0; “below the threshold” with Q9P227; “below the threshold” in the assay with Q9C0E4; “below the threshold” in the assay with Q96HC4; “below the threshold” with O15021; “below the threshold” in the assay with PTPN13_2, Q12923. Further, the pKd result in the assay with Q8TDM6, with Q9NR12, with Q9H190, with Q96SB3, with Q13368 and with O00560 was “below the threshold” throughout. The pKd entry with O43166 and with Q92614 was “below the threshold” each time.

B5: HPV82-E6, Q9IR59 (peptide)
chain: PPRQRSETQV
As to B5, the pKd result with Q8TB45, with Q9ULJ8, with Q96FS4, with Q6ZWJ1, with Q5TCQ9 and in the assay with Q70Z35 was “below the threshold” in each case. Also, the pKd entry with O00233, with Q8IUC4, with Q96JB8, with O60759, with O75970 and in the assay with Q8TEW0 was “below the threshold” in each case. Also, the pKd result with Q9P227 is “below the threshold”; with Q9C0E4, “below the threshold”; with Q96HC4 it was “below the threshold”; with O15021, “below the threshold”; with PTPN13_2, Q12923, “below the threshold”; in the assay with Q8TDM6 it was “below the threshold”. Moreover, the pKd result with Q9NR12, in the assay with Q9H190, in the assay with Q96SB3, in the assay with Q13368, with O00560 and in the assay with O43166 was “below the threshold” in each case. In the assay with Q92614, the pKd result is “below the threshold”.

B6: RASSF6, Q6ZTQ3 (peptide)
chain: KLVIKTETTV
Consider B6, for which the pKd result with Q8TB45, in the assay with Q9ULJ8, with Q96FS4, with Q6ZWJ1, with Q5TCQ9 and with Q70Z35 was “below the threshold” throughout. For the same molecule, the pKd entry in the assay with O00233 is “below the threshold”; in the assay with Q8IUC4 it was “below the threshold”; with Q96JB8 it was “below the threshold”; with O60759 it was “below the threshold”; in the assay with O75970 it was “below the threshold”; with LIMK1, P53667, 4.37. Further, the pKd entry in the assay with Q8TEW0 is “below the threshold”; with Q9C0E4, “below the threshold”; with Q96HC4, “below the threshold”; in the assay with O15021, “below the threshold”; with PTPN13_2, Q12923 it was “below the threshold”; with Q8TDM6, “below the threshold”. Further, the negative-log Kd (pKd) result with Q9NR12, with Q9H190, in the assay with Q13368, in the assay with O00560, with O43166 and with Q92614 was “below the threshold” in each case.

B7: NET1, Q7Z628 (peptide)
chain: SGGKRKETLV
With B7, the pKd entry with LNX2_1, Q8N448 is “below the threshold”; with PTPN13_2, Q12923 it was “below the threshold”.

The pKd is −log10 of the Kd, conventionally taken in molar units.

The values are drawn from PMC9482650, “Quantitative fragmentomics allow affinity mapping of interactomes” (Nature Communications, 2022).
